{"source": "patent US20250283116", "about": "“USE OF ISCB IN GENOME EDITING” (Cornell University, published 2025)", "binders": {"B1": {"name": "OgeuIscB ωRNA with 16-nt guide ; cryo-EM target DNA (ssRNA ; dsDNA)", "RNA": "AAAAGAGUGAACGAGAGGCUCUUCCAACUUUAUGGUUGCGACCGUAGGUUGAAAGAGCACAGGCUGAGACAUUCGUAAGGCCGAAAGACCGGACGCACCCUGGGAUUUCCCCAGUCCCCGGAACUGCAUAGCGGAUGCCAGUUGAUGGAGCAAUCUAUCAGAUAAGCCAGGGGGAACAAUCACCUCUCUGUAUCAGAGAGAGUUUUACAAAAGGAGGAACGG", "DNA 1": "CGCCCCACGAGGGTACGGCAAAAGAGTTTTTTTTACTAGAAGTCGAGGTCAGCCCGTGGC", "DNA 2": "GCCACGGGCTGACCTCGACTTCTAGTCTCGTTCACTCTTTTGCCGTACCCTCGTGGGGCG", "modifications": "phosphorothioate at several positions of both strands (after G25-T31 region as marked by *)"}}, "molecular_target": "T1, OgeuIscB wild-type (human gut metagenome)", "T1 chain": "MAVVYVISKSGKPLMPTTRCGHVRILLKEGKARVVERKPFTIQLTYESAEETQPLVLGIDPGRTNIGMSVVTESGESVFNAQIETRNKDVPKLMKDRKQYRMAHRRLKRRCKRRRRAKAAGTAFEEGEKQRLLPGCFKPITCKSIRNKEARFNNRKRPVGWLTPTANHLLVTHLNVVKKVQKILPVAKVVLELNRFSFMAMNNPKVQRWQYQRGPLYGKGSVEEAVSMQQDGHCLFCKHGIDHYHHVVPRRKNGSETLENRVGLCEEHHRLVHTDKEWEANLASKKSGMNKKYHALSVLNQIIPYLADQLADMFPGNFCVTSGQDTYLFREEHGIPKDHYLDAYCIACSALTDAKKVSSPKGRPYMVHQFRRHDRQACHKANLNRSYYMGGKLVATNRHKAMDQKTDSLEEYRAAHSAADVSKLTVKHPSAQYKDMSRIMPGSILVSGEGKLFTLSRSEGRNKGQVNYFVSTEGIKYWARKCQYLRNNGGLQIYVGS", "assay": "structure; cryo-EM of IscB-ωRNA/target DNA at 2.78 A; TAM 5'-CTAGAA-3' (ideal NWRRNA)", "conditions": "label: 5' 6-FAM on non-target strand; partially mismatched bubble in protospacer", "experimental": "IscB was incubated for 15 minutes at 37° C. with the target DNA in cleavage buffer. DNA was supplied at a 3 fold molar excess to IscB (0.5 mg/mL final concentration). 3.5 μL of were applied to a Quantifoil holey carbon grid (1.2/1.3, 200 mesh) which had been glow-discharged with 20 mA at 0.39 mBar for 30 seconds (PELCO easiGlow). Grids were blotted with Vitrobot blotting paper (Electron Microscopy Sciences) for 6.5 s at 4° C., 100% humidity, and plunge-frozen in liquid ethane using a Mark IV FEI/Thermo Fisher Vitrobot. Data were collected on a Krios G3i Cryo Transmission Electron Microscope (Thermo Scientific) with a Ceta 16M CMOS camera 300 kV, Gatan K3 direct electron detector. The total exposure time of each movie stack led to a total accumulated dose of 50 electrons per Å2 which fractionated into 50 frames. Dose-fractionated super-resolution movie stacks collected from the Gatan K3 direct electron detector were binned to a pixel size of 1.1 Å. The defocus value was set between −1.0 μm to −2.5 μm."}
{"binder": "B1", "values": [{"measurement": "binding result", "value": "binds"}]}
